Experimental findings from patent publication US20200123264A1 are described below.

Assay [1] deals with extracellular domain of human LEPR with an N-terminal myc-myc tag, GPI-anchored on HEK293 cells (human) (UniProt P48357). In words: FACS, secondary alone, HEK293/hLEPR-GPI cells, no added Leptin.
For assay [2] the target is unchanged. The experiment in a line: FACS, secondary alone, HEK293/hLEPR-GPI cells, 1 µM Leptin. Background: In flow cytometry, cells or beads pass a laser one at a time.

Sequence of extracellular domain of human LEPR with an N-terminal myc-myc tag, GPI-anchored on HEK293 cells (human) (P48357 22-839 limits assumed): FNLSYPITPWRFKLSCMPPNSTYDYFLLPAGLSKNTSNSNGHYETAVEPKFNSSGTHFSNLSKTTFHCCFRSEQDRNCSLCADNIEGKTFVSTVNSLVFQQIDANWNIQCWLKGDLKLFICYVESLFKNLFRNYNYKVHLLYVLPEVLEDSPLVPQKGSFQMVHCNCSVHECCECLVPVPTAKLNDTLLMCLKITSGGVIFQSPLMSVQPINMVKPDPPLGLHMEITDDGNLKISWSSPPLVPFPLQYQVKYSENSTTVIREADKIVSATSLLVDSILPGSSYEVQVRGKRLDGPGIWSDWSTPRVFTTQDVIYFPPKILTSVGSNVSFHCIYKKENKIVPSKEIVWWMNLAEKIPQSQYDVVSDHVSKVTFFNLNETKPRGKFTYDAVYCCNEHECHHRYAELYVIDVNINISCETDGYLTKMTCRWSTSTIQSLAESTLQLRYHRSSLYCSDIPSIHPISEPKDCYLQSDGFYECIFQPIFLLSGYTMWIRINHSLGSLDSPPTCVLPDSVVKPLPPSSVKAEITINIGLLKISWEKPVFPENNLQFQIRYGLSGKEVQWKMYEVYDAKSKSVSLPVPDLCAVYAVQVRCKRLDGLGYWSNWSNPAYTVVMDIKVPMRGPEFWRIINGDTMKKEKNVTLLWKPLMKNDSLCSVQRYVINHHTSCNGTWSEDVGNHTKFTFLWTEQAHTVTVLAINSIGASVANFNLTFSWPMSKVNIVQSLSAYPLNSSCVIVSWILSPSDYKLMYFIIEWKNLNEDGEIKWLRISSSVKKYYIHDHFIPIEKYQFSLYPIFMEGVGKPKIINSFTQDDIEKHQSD

As to Anti-human IgG secondary antibody alone, the Binding Ratio (normalized to unstained) in assay [1] and in assay [2] was 3 fold each time.

Consider Anti-mouse IgG secondary antibody alone, for which the Binding Ratio (normalized to unstained) in assay [1] and in assay [2] was 2 fold each time.
